Source: patent US20160282364

Tested on: insulin

“recombinant human IDE42-1019 (R&D Systems)” was tested, and the “degradation of insulin by IDE (HTRF insulin assay, 0.4 µg/mL IDE, 10 ng/mL insulin, 30° C., 15 min)” value was “˜75% degradation of insulin”.
